Consider ten molecules from US20230143604A1, “QW DOSING OF GIP RECEPTOR AGONIST PEPTIDE COMPOUNDS AND USES THEREOF” (TAKEDA PHARMACEUTICAL COMPANY LIMITED, priority 2020, published 2023).

Starred links: 1 amine or outer side, 2 acyl side, 3 side chain; linkers in the order of their positions; H or OH if unused. Non-standard residues stand in square brackets, D forms with d. Groups on a side chain read outwards from the residue. No end group written: not given here. *: point of attachment. C20 diacid = O=C(O)CCCCCCCCCCCCCCCCCCC(=O)*; C18 diacid = O=C(O)CCCCCCCCCCCCCCCCC(=O)*; γGlu = O=C(O)[C@H](CCC(=O)[*:2])N[*:1]; NMeY = CN[C@@H](Cc1ccc(O)cc1)C(=O)O; AEEA = NCCOCCOCC(=O)O; Aib = CC(C)(N)C(=O)O Bounds are passed on as bounds.

The labels stand for the following.
B1: Compound No. 168 (peptide)
peptide: H-Y[Aib]EGTFISDYSI[Aib]LDKAAQAK([AEEA-AEEA-γGlu-γGlu-C18 diacid])FVEWLLAQRG-OH
SMILES: CC[C@H](C)[C@H](NC(=O)[C@H](Cc1ccccc1)NC(=O)[C@@H](NC(=O)CNC(=O)[C@H](CCC(=O)O)NC(=O)C(C)(C)NC(=O)[C@@H](N)Cc1ccc(O)cc1)[C@@H](C)O)C(=O)N[C@@H](CO)C(=O)N[C@@H](CC(=O)O)C(=O)N[C@@H](Cc1ccc(O)cc1)C(=O)N[C@@H](CO)C(=O)N[C@H](C(=O)NC(C)(C)C(=O)N[C@@H](CC(C)C)C(=O)N[C@@H](CC(=O)O)C(=O)N[C@@H](CCCCN)C(=O)N[C@@H](C)C(=O)N[C@@H](C)C(=O)N[C@@H](CCC(N)=O)C(=O)N[C@@H](C)C(=O)N[C@@H](CCCCNC(=O)COCCOCCNC(=O)COCCOCCNC(=O)CC[C@H](NC(=O)CC[C@H](NC(=O)CCCCCCCCCCCCCCCCC(=O)O)C(=O)O)C(=O)O)C(=O)N[C@@H](Cc1ccccc1)C(=O)N[C@H](C(=O)N[C@@H](CCC(=O)O)C(=O)N[C@@H](Cc1c[nH]c2ccccc12)C(=O)N[C@@H](CC(C)C)C(=O)N[C@@H](CC(C)C)C(=O)N[C@@H](C)C(=O)N[C@@H](CCC(N)=O)C(=O)N[C@@H](CCCNC(=N)N)C(=O)NCC(=O)O)C(C)C)[C@@H](C)CC
B2: Compound No. 163 (peptide)
peptide: H-Y[Aib]EGTFISDYSIALDK[Aib]K([AEEA-AEEA-γGlu-C18 diacid])QANFVEWLLAQRG-OH
SMILES: CC[C@H](C)[C@H](NC(=O)[C@H](CO)NC(=O)[C@H](Cc1ccc(O)cc1)NC(=O)[C@H](CC(=O)O)NC(=O)[C@H](CO)NC(=O)[C@@H](NC(=O)[C@H](Cc1ccccc1)NC(=O)[C@@H](NC(=O)CNC(=O)[C@H](CCC(=O)O)NC(=O)C(C)(C)NC(=O)[C@@H](N)Cc1ccc(O)cc1)[C@@H](C)O)[C@@H](C)CC)C(=O)N[C@@H](C)C(=O)N[C@@H](CC(C)C)C(=O)N[C@@H](CC(=O)O)C(=O)N[C@@H](CCCCN)C(=O)NC(C)(C)C(=O)N[C@@H](CCCCNC(=O)COCCOCCNC(=O)COCCOCCNC(=O)CC[C@H](NC(=O)CCCCCCCCCCCCCCCCC(=O)O)C(=O)O)C(=O)N[C@@H](CCC(N)=O)C(=O)N[C@@H](C)C(=O)N[C@@H](CC(N)=O)C(=O)N[C@@H](Cc1ccccc1)C(=O)N[C@H](C(=O)N[C@@H](CCC(=O)O)C(=O)N[C@@H](Cc1c[nH]c2ccccc12)C(=O)N[C@@H](CC(C)C)C(=O)N[C@@H](CC(C)C)C(=O)N[C@@H](C)C(=O)N[C@@H](CCC(N)=O)C(=O)N[C@@H](CCCNC(=N)N)C(=O)NCC(=O)O)C(C)C
B3: Compound No. 167 (peptide)
peptide: H-Y[Aib]EGTFISDYSI[Aib]LDKAAQQK([AEEA-AEEA-γGlu-γGlu-C18 diacid])FVEWLLAQRG-OH
SMILES: CC[C@H](C)[C@H](NC(=O)[C@H](Cc1ccccc1)NC(=O)[C@@H](NC(=O)CNC(=O)[C@H](CCC(=O)O)NC(=O)C(C)(C)NC(=O)[C@@H](N)Cc1ccc(O)cc1)[C@@H](C)O)C(=O)N[C@@H](CO)C(=O)N[C@@H](CC(=O)O)C(=O)N[C@@H](Cc1ccc(O)cc1)C(=O)N[C@@H](CO)C(=O)N[C@H](C(=O)NC(C)(C)C(=O)N[C@@H](CC(C)C)C(=O)N[C@@H](CC(=O)O)C(=O)N[C@@H](CCCCN)C(=O)N[C@@H](C)C(=O)N[C@@H](C)C(=O)N[C@@H](CCC(N)=O)C(=O)N[C@@H](CCC(N)=O)C(=O)N[C@@H](CCCCNC(=O)COCCOCCNC(=O)COCCOCCNC(=O)CC[C@H](NC(=O)CC[C@H](NC(=O)CCCCCCCCCCCCCCCCC(=O)O)C(=O)O)C(=O)O)C(=O)N[C@@H](Cc1ccccc1)C(=O)N[C@H](C(=O)N[C@@H](CCC(=O)O)C(=O)N[C@@H](Cc1c[nH]c2ccccc12)C(=O)N[C@@H](CC(C)C)C(=O)N[C@@H](CC(C)C)C(=O)N[C@@H](C)C(=O)N[C@@H](CCC(N)=O)C(=O)N[C@@H](CCCNC(=N)N)C(=O)NCC(=O)O)C(C)C)[C@@H](C)CC
B4: Compound No. 162 (peptide)
peptide: H-Y[Aib]EGTFISDYSIALDK[Aib]K([AEEA-AEEA-γGlu-C18 diacid])QADFVEWLLAQRG-OH
SMILES: CC[C@H](C)[C@H](NC(=O)[C@H](CO)NC(=O)[C@H](Cc1ccc(O)cc1)NC(=O)[C@H](CC(=O)O)NC(=O)[C@H](CO)NC(=O)[C@@H](NC(=O)[C@H](Cc1ccccc1)NC(=O)[C@@H](NC(=O)CNC(=O)[C@H](CCC(=O)O)NC(=O)C(C)(C)NC(=O)[C@@H](N)Cc1ccc(O)cc1)[C@@H](C)O)[C@@H](C)CC)C(=O)N[C@@H](C)C(=O)N[C@@H](CC(C)C)C(=O)N[C@@H](CC(=O)O)C(=O)N[C@@H](CCCCN)C(=O)NC(C)(C)C(=O)N[C@@H](CCCCNC(=O)COCCOCCNC(=O)COCCOCCNC(=O)CC[C@H](NC(=O)CCCCCCCCCCCCCCCCC(=O)O)C(=O)O)C(=O)N[C@@H](CCC(N)=O)C(=O)N[C@@H](C)C(=O)N[C@@H](CC(=O)O)C(=O)N[C@@H](Cc1ccccc1)C(=O)N[C@H](C(=O)N[C@@H](CCC(=O)O)C(=O)N[C@@H](Cc1c[nH]c2ccccc12)C(=O)N[C@@H](CC(C)C)C(=O)N[C@@H](CC(C)C)C(=O)N[C@@H](C)C(=O)N[C@@H](CCC(N)=O)C(=O)N[C@@H](CCCNC(=N)N)C(=O)NCC(=O)O)C(C)C

The first assay concerns the target T1, full-length human GIPR with an N-terminal FLAG tag, overexpressed on HEK-293T cells (human, UniProt P48546 22-466).
T1 sequence (looked up): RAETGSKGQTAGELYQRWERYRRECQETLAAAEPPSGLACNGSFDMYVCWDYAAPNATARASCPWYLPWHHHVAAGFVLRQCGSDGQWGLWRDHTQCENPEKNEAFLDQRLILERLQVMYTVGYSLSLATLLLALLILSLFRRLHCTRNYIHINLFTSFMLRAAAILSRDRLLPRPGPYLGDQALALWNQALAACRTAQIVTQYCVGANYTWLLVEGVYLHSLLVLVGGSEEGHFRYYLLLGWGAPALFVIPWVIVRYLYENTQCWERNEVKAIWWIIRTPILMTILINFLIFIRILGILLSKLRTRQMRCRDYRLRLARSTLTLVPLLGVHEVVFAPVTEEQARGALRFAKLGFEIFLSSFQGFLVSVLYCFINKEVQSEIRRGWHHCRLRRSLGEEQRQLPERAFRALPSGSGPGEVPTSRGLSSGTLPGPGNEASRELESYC
The assay is described as follows: cell-based or functional assay.
In the case of [NMeY][Aib]EGTFISDYSI[Aib]LDR[Aib]AQ[Aib]K([AEEA-AEEA-γGlu-γGlu-C20 diacid])FVNWLLAQRG-OH [Compound No. 159], the “Human GIPR cAMP EC50, HEK293T” value worked out at 0.0009 nM.

On to B1, for which the “Human GIPR cAMP EC50, HEK293T” value stood at 0.0009 nM.

For B2, the “Human GIPR cAMP EC50, HEK293T” value came to 0.0002 nM.

Take B3: the “Human GIPR cAMP EC50, HEK293T” value amounted to 0.0009 nM.

For YXEGTFISDYSIAXDKAXQQDFVEWLLAQRG (N-terminus H; Aib at 2, 14; Km at 18 = Lys(2OEGgE-C18DA); C-terminus OH) [Compound No. 164], the “Human GIPR cAMP EC50, HEK293T” value came out at 0.0002 nM.

YXEGTFISDYSIAXDKAXQADFVEWLLAQRG (N-terminus H; Aib at 2, 14; Km at 18 = Lys(2OEGgE-C18DA); C-terminus OH) [Compound No. 165]: the “Human GIPR cAMP EC50, HEK293T” value turned out to be 0.0001 nM.

In the case of YXEGTFISDYSIAXDKIXQADFVEWLLAQRG (N-terminus H; Aib at 2, 14; Km at 18 = Lys(2OEGgE-C18DA); C-terminus OH) [Compound No. 166], the “Human GIPR cAMP EC50, HEK293T” value was 0.0005 nM.

Consider B4, for which the “Human GIPR cAMP EC50, HEK293T” value was found to be 0.0004 nM.

Take H-Y[Aib]EGTFISDYSIALDKIK([AEEA-AEEA-γGlu-C18 diacid])Q[Aib]DFVEWLLAQRG-OH [Compound No. 160]: the “Human GIPR cAMP EC50, HEK293T” value amounted to 0.0003 nM.

With H-Y[Aib]EGTFISDYSIALDKAK([AEEA-AEEA-γGlu-C18 diacid])Q[Aib]DFVEWLLAQRG-OH [Compound No. 161], the “Human GIPR cAMP EC50, HEK293T” value is 0.0001 nM.

Another assay addresses full-length human GLP-1R with an N-terminal FLAG tag, overexpressed on HEK-293T cells (human, UniProt P43220 24-463). Kind of assay: cell-based or functional assay.
With [NMeY][Aib]EGTFISDYSI[Aib]LDR[Aib]AQ[Aib]K([AEEA-AEEA-γGlu-γGlu-C20 diacid])FVNWLLAQRG-OH [Compound No. 159], the “Human GLP1R cAMP EC50, HEK293T” value was 11.7 nM.

With B1, the “Human GLP1R cAMP EC50, HEK293T” value came out at 16.6 nM.

For B2, the “Human GLP1R cAMP EC50, HEK293T” value turned out to be 219 nM.

Turning to B3, the “Human GLP1R cAMP EC50, HEK293T” value came to 38 nM.

As for YXEGTFISDYSIAXDKAXQQDFVEWLLAQRG (N-terminus H; Aib at 2, 14; Km at 18 = Lys(2OEGgE-C18DA); C-terminus OH) [Compound No. 164], the “Human GLP1R cAMP EC50, HEK293T” value is greater than 1000 nM.

Take YXEGTFISDYSIAXDKAXQADFVEWLLAQRG (N-terminus H; Aib at 2, 14; Km at 18 = Lys(2OEGgE-C18DA); C-terminus OH) [Compound No. 165]: the “Human GLP1R cAMP EC50, HEK293T” value was greater than 1000 nM.

With YXEGTFISDYSIAXDKIXQADFVEWLLAQRG (N-terminus H; Aib at 2, 14; Km at 18 = Lys(2OEGgE-C18DA); C-terminus OH) [Compound No. 166], the “Human GLP1R cAMP EC50, HEK293T” value turned out to be 74.1 nM.

For B4, the “Human GLP1R cAMP EC50, HEK293T” value came to 589 nM.

H-Y[Aib]EGTFISDYSIALDKIK([AEEA-AEEA-γGlu-C18 diacid])Q[Aib]DFVEWLLAQRG-OH [Compound No. 160]: the “Human GLP1R cAMP EC50, HEK293T” value came to 537 nM.

For the molecule H-Y[Aib]EGTFISDYSIALDKAK([AEEA-AEEA-γGlu-C18 diacid])Q[Aib]DFVEWLLAQRG-OH [Compound No. 161], the “Human GLP1R cAMP EC50, HEK293T” value came to 85.1 nM.
